Consider one molecule from publication PMC5959768 (Cell, 2018).

For this assay, the target named is Gβ1/Gγ2(C68S) complex (human, UniProt P62873 1-340; P59768 1-71, C68S). The assay is described as follows: SEC.
Gβ1/Gγ2(C68S) complex, sequence (P62873 whole entry, chain 1 of 2): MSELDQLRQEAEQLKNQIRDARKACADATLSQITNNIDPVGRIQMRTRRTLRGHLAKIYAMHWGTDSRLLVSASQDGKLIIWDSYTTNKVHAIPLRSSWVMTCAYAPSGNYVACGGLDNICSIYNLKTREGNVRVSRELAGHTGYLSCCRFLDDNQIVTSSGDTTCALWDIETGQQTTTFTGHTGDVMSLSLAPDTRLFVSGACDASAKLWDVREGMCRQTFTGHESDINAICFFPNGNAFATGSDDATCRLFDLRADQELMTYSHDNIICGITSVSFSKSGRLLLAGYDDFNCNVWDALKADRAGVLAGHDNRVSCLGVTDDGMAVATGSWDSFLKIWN
Gβ1/Gγ2(C68S) complex, sequence (P59768 whole entry C68S, chain 2 of 2): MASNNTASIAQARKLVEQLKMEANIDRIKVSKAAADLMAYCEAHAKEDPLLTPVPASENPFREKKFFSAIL

B1: Wild type human Gαs (residues 7-380 of the short isoform) (natural protein, UniProt P63092-2 7-380, looked up)
chain: SKTEDQRNEEKAQREANKKIEKQLQKDKQVYRATHRLLLLGAGESGKSTIVKQMRILHVNGFNGDSEKATKVQDIKNNLKEAIETIVAAMSNLVPPVELANPENQFRVDYILSVMNVPDFDFPPEFYEHAKALWEDEGVRACYERSNEYQLIDCAQYFLDKIDVIKQADYVPSDQDLLRCRVLTSGIFETKFQVDKVNFHMFDVGGQRDERRKWIQCFNDVTAIIFVVASSSYNMVIREDNQTNRLQEALNLFKSIWNNRWLRTISVILFLNKQDLLAEKVLAGKSKIEDYFPEFARYTTPEDATPEPGEDPRVTRAKYFIRDEFLRISTASGDGRHYCYPHFTCAVDTENIRRVFNDCRDIIQRMHLRQYELL
Turning to B1, the binding result is on record as “binds”.
